Assay results reported in patent publication US20200115464A1 (Regeneron, published 2020).
Where a chain is given by its changes, count along the chain named.

B1: Antibody 1 (CD3×CD20-chimericFc bispecific antibody) (bispecific antibody, human IgG4 S228P)
heavy 1: EVQLVESGGGLVQPGRSLRLSCVASGFTFNDYAMHWVRQAPGKGLEWVSVISWNSDSIGYADSVKGRFTISRDNAKNSLYLQMHSLRAEDTALYYCAKDNHYGSGSYYYYQYGMDVWGQGTTVTVSSASTKGPSVFPLAPCSRSTSESTAALGCLVKDYFPEPVTVSWNSGALTSGVHTFPAVLQSSGLYSLSSVVTVPSSSLGTKTYTCNVDHKPSNTKVDKRVESKYGPPCPPCPAPPVAGPSVFLFPPKPKDTLMISRTPEVTCVVVDVSQEDPEVQFNWYVDGVEVHNAKTKPREEQFNSTYRVVSVLTVLHQDWLNGKEYKCKVSNKGLPSSIEKTISKAKGQPREPQVYTLPPSQEEMTKNQVSLTCLVKGFYPSDIAVEWESNGQPENNYKTTPPVLDSDGSFFLYSRLTVDKSRWQEGNVFSCSVMHEALHNHYTQKSLSLSLGK
heavy 2: EVQLVESGGGLVQPGRSLRLSCAASGFTFDDYTMHWVRQAPGKGLEWVSGISWNSGSIGYADSVKGRFTISRDNAKKSLYLQMNSLRAEDTALYYCAKDNSGYGHYYYGMDVWGQGTTVTVASASTKGPSVFPLAPCSRSTSESTAALGCLVKDYFPEPVTVSWNSGALTSGVHTFPAVLQSSGLYSLSSVVTVPSSSLGTKTYTCNVDHKPSNTKVDKRVESKYGPPCPPCPAPPVAGPSVFLFPPKPKDTLMISRTPEVTCVVVDVSQEDPEVQFNWYVDGVEVHNAKTKPREEQFNSTYRVVSVLTVLHQDWLNGKEYKCKVSNKGLPSSIEKTISKAKGQPREPQVYTLPPSQEEMTKNQVSLTCLVKGFYPSDIAVEWESNGQPENNYKTTPPVLDSDGSFFLYSRLTVDKSRWQEGNVFSCSVMHEALHNRFTQKSLSLSLGK
VL: EIVMTQSPATLSVSPGERATLSCRASQSVSSNLAWYQQKPGQAPRLLIYGASTRATGIPARFSGSGSGTEFTLTISSLQSEDFAVYYCQHYINWPLTFGGGTKVEIKR
notes: Only the light chain variable region is tied to this antibody; also called Ab 1; Ab1
B2: Antibody 2 (CD3×CD20-chimericFc bispecific antibody) (bispecific antibody, human IgG1)
heavy 1: EVQLVESGGGLVQPGRSLRLSCVASGFTFNDYAMHWVRQAPGKGLEWVSVISWNSDSIGYADSVKGRFTISRDNAKNSLYLQMHSLRAEDTALYYCAKDNHYGSGSYYYYQYGMDVWGQGTTVTVSSASTKGPSVFPLAPSSKSTSGGTAALGCLVKDYFPEPVTVSWNSGALTSGVHTFPAVLQSSGLYSLSSVVTVPSSSLGTQTYICNVNHKPSNTKVDKKVEPKSCDKTHTCPPCPAPPVAGPSVFLFPPKPKDTLMISRTPEVTCVVVDVSQEDPEVQFNWYVDGVEVHNAKTKPREEQFNSTYRVVSVLTVLHQDWLNGKEYKCKVSNKGLPSSIEKTISKAKGQPREPQVYTLPPSRDELTKNQVSLTCLVKGFYPSDIAVEWESNGQPENNYKTTPPVLDSDGSFFLYSKLTVDKSRWQQGNVFSCSVMHEALHNHYTQKSLSLSPGK
heavy 2: EVQLVESGGGLVQPGRSLRLSCAASGFTFDDYTMHWVRQAPGKGLEWVSGISWNSGSIGYADSVKGRFTISRDNAKKSLYLQMNSLRAEDTALYYCAKDNSGYGHYYYGMDVWGQGTTVTVASASTKGPSVFPLAPSSKSTSGGTAALGCLVKDYFPEPVTVSWNSGALTSGVHTFPAVLQSSGLYSLSSVVTVPSSSLGTQTYICNVNHKPSNTKVDKKVEPKSCDKTHTCPPCPAPPVAGPSVFLFPPKPKDTLMISRTPEVTCVVVDVSQEDPEVQFNWYVDGVEVHNAKTKPREEQFNSTYRVVSVLTVLHQDWLNGKEYKCKVSNKGLPSSIEKTISKAKGQPREPQVYTLPPSRDELTKNQVSLTCLVKGFYPSDIAVEWESNGQPENNYKTTPPVLDSDGSFFLYSKLTVDKSRWQQGNVFSCSVMHEALHNRFTQKSLSLSPGK
VL: B1 VL
notes: also called Ab 2
B3: (Control) Antibody 4, CD3×CD20 antibody-wild-type Fc (wtFc) (bispecific antibody, human IgG1)
heavy 1: not shown
heavy 2: not shown
VL: B1 VL
notes: Same variable regions as Antibody 1 and Antibody 2, wild-type IgG1 CH; also called Control Ab 4; Control 4

Experiments:
[1] = target: T1, human CD20 on cells (Raji, CD3-, CD20+ human B-cell line; B16F10.9/CD20 cells) (human, UniProt P11836 1-297); experiment: cell-based or functional assay
T1 sequence (looked up): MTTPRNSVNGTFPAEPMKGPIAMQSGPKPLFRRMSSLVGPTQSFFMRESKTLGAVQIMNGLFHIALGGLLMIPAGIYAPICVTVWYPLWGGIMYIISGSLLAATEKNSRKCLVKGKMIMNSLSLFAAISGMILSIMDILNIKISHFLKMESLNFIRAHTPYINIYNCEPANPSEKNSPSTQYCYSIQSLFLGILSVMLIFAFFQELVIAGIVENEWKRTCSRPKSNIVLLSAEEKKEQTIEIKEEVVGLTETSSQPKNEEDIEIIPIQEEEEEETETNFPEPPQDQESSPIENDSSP

[2] = target: T1, human CD20 on cells (Raji, CD3-, CD20+ …); experiment: cell-based or functional assay; remark: listed apart in the source
[3] = target: T2, His-tagged human FcγRIIA (H131) (human, UniProt P12318 36-218, limits assumed); experiment: SPR steady-state, His-captured FcγR, antibody injected, 25 C
T2 construct: also called hFcyRIIA (H131)
T2 sequence (looked up): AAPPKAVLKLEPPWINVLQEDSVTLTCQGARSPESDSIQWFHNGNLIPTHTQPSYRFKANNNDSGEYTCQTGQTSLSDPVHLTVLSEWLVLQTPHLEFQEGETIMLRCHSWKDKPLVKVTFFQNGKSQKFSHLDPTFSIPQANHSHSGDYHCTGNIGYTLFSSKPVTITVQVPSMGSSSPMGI

[4] = target: T3, His-tagged human FcγRIIA (R131) (human, UniProt P12318 36-218, limits assumed); experiment: as above
T3 construct: also called human FcyRIIA (R131)
T3 sequence (looked up): T2 sequence (looked up) with H132R

[5] = target: T4, His-tagged cynomolgus FcγRIIA (cynomolgus monkey, UniProt A0A140HDN0 30-216); experiment: as above
T4 construct: also called cyno FcyRIIA
T4 sequence: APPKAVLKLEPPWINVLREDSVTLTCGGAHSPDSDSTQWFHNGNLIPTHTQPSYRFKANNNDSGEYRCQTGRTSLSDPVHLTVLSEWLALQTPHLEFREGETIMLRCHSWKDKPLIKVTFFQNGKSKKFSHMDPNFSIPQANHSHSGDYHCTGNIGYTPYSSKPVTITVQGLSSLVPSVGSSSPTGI

His-tagged human FcγRIIB = target: T5, His-tagged human FcγRIIB (human, UniProt P31994 46-217, limits assumed); experiment: as above
T5 construct: also called human FcyRIIB
T5 sequence (looked up): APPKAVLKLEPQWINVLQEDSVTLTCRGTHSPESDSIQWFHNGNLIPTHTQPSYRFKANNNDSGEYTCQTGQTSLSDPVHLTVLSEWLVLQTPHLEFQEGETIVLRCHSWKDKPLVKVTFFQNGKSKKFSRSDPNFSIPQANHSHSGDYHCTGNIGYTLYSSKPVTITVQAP

[6] = target: T6, His-tagged cynomolgus FcγRIIB (cynomolgus monkey, UniProt A0A140HDP4 46-217); experiment: as above
T6 construct: also called cyno FcyRIIB
T6 sequence: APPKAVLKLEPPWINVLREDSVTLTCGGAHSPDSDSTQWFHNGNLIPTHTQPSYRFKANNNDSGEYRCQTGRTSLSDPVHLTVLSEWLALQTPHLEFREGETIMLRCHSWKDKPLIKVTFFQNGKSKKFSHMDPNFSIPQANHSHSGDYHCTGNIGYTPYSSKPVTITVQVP

[7] = target: T7, His-tagged human FcγRIIIA (V176) (human, UniProt P08637 17-208); experiment: as above
T7 construct: also called human FcyRIIIA (V176)

[8] = target: T8, His-tagged human FcγRIIIA (F176) (human, UniProt P08637 17-208); experiment: as above
T8 construct: also called human FcyRIIIA (F176)

[9] = target: T9, His-tagged cynomolgus FcγRIIIA (cynomolgus monkey, UniProt Q8SPW2 17-208, limits assumed); experiment: as above
T9 construct: also called cyno FcyRIIIA

[10] = target: T10, His-tagged human FcγRIIIB (human, UniProt O75015 17-200); experiment: as above
T10 construct: also called human FcyRIIIB

His-tagged human FcγRI = target: T11, His-tagged human FcγRI (human, UniProt P12314 16-288); experiment: SPR (Biacore T200), His-captured human FcγRI, antibody injected, 25 C
T11 construct: also called human FcRγI; hFcγRI
Method: Briefly, SPR experiments were performed at 25° C. on a Biacore T200 instrument employing a carboxymethyl dextran-coated (CM-5) chip. A mouse monoclonal anti-penta-histidine antibody (GE Healthcare) was immobilized on the surface of the CM-5 sensor chip using standard amine-coupling chemistry. […] Kinetic association (kₐ) and dissociation (kd) rate constants were determined by processing and fitting the data to a 1:1 binding model using Scrubber 2.0 curve fitting software. Binding dissociation equilibrium constants (KD) and dissociative half-lives (t_{1/2}) were calculated from the kinetic rate constants as: KD (M)=kd/kₐ; and t_{1/2}(min)=(ln 2/(60*kd).

[11] = target: T1, human CD20 on cells (Raji, CD3-, CD20+ …); experiment: cell-based or functional assay; remark: listed apart in the source
[12] = target: T1, human CD20 on cells (Raji, CD3-, CD20+ …); experiment: FACS, serially diluted antibody on Raji cells (CD3-, CD20+)
Method: (§1) FACS data was acquired using the following protocol: Cells at 2×10⁵ per well were incubated with serially diluted antibodies for 30 min on ice. Post incubation, cells were washed and appropriate secondary (Jurkat, RAJI cells) or cocktail of secondary antibodies (for cyno PBMC) was added and incubated for an additional 30 minutes. After incubation, cells were washed, re-suspended in cold PBS containing 1% BSA and analyzed by flow cytometry on a BD FACS Canto II. Jurkat and Raji cells were gated by side and forward scatters, while cynomolgus T cells were also gated as a CD2+CD4+ population. The EC₅₀s for cell binding titration were determined using Prism software with values calculated using a 4-parameter non-linear regression analysis.

[13] = target: T12, human CD3 on Jurkat cells (CD3+, CD20- human T-cell line) (human, UniProt P07766 23-207; P04234 22-171; P09693 23-182; P20963 22-164); experiment: FACS, serially diluted antibody on Jurkat cells (CD3+, CD20-)
T12 construct: whole, on cells; SP34 is said to react with the epsilon chain
Method: as §1

[14] = target: T13, cynomolgus CD3 on T cells of cynomolgus PBMCs (mkT cells) (cynomolgus monkey); experiment: FACS, serially diluted antibody on cynomolgus PBMC T cells (mkT cells)
T13 construct: whole, on cells; also called cynomolgus T cells; monkey T-cells
Method: as §1

T9 sequence (Q8SPW2 17-208 limits assumed): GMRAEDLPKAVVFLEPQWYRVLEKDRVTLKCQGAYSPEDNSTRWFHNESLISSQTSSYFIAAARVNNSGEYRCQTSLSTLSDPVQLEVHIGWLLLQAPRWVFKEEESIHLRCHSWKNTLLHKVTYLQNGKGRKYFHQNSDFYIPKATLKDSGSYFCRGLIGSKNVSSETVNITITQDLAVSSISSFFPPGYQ
T10 sequence (O75015 17-200 limits assumed): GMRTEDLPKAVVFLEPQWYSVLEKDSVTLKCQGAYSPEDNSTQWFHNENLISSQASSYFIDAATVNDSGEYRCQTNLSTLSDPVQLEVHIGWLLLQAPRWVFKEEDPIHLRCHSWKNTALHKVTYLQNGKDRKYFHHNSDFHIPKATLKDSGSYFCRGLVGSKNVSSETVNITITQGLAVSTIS
T8 sequence (P08637 17-208 limits assumed): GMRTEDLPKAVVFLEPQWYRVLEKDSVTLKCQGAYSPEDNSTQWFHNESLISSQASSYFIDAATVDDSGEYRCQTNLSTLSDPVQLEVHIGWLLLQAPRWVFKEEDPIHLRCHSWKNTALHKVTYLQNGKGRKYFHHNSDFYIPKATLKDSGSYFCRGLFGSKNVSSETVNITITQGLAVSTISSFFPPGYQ
T11 sequence (P12314 16-288 limits assumed): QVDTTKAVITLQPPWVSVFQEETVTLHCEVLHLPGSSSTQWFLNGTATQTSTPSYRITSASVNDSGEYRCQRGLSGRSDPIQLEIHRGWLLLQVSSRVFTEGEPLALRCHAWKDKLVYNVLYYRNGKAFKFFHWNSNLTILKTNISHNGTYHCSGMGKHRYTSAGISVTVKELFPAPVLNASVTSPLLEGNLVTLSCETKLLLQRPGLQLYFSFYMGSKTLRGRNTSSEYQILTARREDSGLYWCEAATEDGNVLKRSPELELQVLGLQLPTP
T7 sequence (P08637 17-208 F176V limits assumed): as the sequence (P08637 17-208 limits assumed) above, with F160V counted along it

Binder	Raji Cytotoxicity Activated Human T-cells [M] (EC50, calcein release) [1]	Raji Cytotoxicity Activated Monkey T-cells [M] (EC50, calcein release) [1]	% Survival B16F10.9/CD20 cells [M] (EC50, target-specific killing, FACS) [2]	Kd [3] [nM]	Kd [4] [nM]	Kd [5] [nM]	Kd (His-tagged human FcγRIIB) [nM]	Kd [6] [nM]	binding result [7]	binding result [8]	Kd [9] [nM]	binding result [10]	binding result (His-tagged human FcγRI)	Raji Cytotoxicity Human T-cells [M] (EC50, calcein release) [11]	Raji Cytotoxicity Monkey T-cells [M] (EC50, calcein release) [11]	EC50 [12] [nM]	EC50 [13] [nM]	EC50 [14] [nM]
B1	2.5e-11	9.1e-12	1.95e-11	120	193	231	1230	139	no binding	no binding	663	no binding	no binding	–	–	–	–	–
B2	–	–	–	117	205	235	2330	146	no binding	no binding	424	no binding	no binding	–	–	–	–	–
B3	1.57e-11	1.73e-12	1.28e-11	–	–	–	–	–	–	–	–	–	–	5.63e-11	1.27e-12	59.9	38.5	8740
